Data from publication PMC9282883 (Nature, 2021).

B1: S2X35 IgG1 (antibody, V domains shown)
VH: QVQLVQSGAEVKKPGASVKVSCKASGYTFTNYGISWVRQAPGQGLEWMGWISAYKGNTNYAQKLQGRVTMTTDTSTSTAYMELRSLRSDDTAVYYCARPDYQVLGYDFWIGYYGMDVWGQGTTVIVSS
VL: QSVLTQPPSVSGAPGQRVTISCTGSSSNIGAGYDVHWYQQLPGTAPKLLIYGNTNRPSGVPDRFSGSKSGTSASLAITGLQAEDEADYYCQSYDSSLSGSEVVFGGGTKLTVL
B2: S2E12 IgG1 (antibody, V domains shown)
VH: not shown
VL: DIVLTQTPGTLSLSPGERATLSCRASQSVSSSYLAWYQQKPGQAPRLLIYGASSRATGIPDRFSGSGSGTDFTLTISRLEPEDFAVYYCQQYVGLTGWTFGQGTKVEIK
B3: S2D106 IgG1 (antibody, V domains shown)
VH: EVQLVQSGAEVKKPGSSVKVSCKASGGPFSSSAISWVRQAPGQGLEWMGGIIPMVGTANYAQKFQGRVTITADESTSTAYMELSSLRSEDTAVYYCARDSRYCSGGSCYSVWFDPWGQGTLVTVSS
VL: not shown
B4: S2H97 IgG1 (antibody, V domains shown)
VH: QVRLVQSGAEVKKSGESLKISCKGSGYSFTSYWIGWVRQMPGKGLEWMGIIYPGDSDTRYSPSFQGQVTISADKSISTVYLQWSSLKASDTAMYYCARQWSHYTYDYYYWGQGTLVTISS
VL: QSVLTQPASVSGSPGQSITISCTGISSDVGGYNSVSWYQQHPGKAPKLMIYDVTNRPSGVSNRFSGSKSGNTASLTISGLQAEDEADYYCSSYTSSSTPPYVFGTGTKVSVL
B5: S304 IgG1 (antibody, V domains shown)
VH: EVQLVESGGGLVQPGGSLRLSCAASGFTFSSYDMHWVRQTTGKGLEWVSTIGTAGDTYYPDSVKGRFTISREDAKNSLYLQMNSLRAGDTAVYYCARGDSSGYYYYFDYWGQGTLLTVSS
VL: DIQMTQSPSSLSAAVGDRVTITCRASQSIGSYLNWYQQKPGKAPKLLIYAASSLQSGVPSRFSGSGSGTDFTLTISSLQPEDFAIYYCQQSYVSPTYTFGPGTKVDIK
B6: S2X35 Fab (Fab, V domains shown)
VH: B1 VH
VL: B1 VL
B7: S2E12 Fab (Fab, V domains shown)
VH: not shown
VL: B2 VL
B8: S2D106 Fab (Fab, V domains shown)
VH: B3 VH
VL: not shown
B9: S2H97 Fab (Fab, V domains shown)
VH: B4 VH
VL: B4 VL
B10: S304 Fab (Fab, V domains shown)
VH: B5 VH
VL: B5 VL

These binders were tested against T1, SARS-CoV-2 RBD WT (for SPR binding assays) (SARS-CoV-2, Wuhan-Hu-1 (WT), UniProt P0DTC2) (assay: cell-based or functional assay).

Row | Binder | IC50, neutralisation of authentic SARS-CoV-2 (SARS-CoV-2-Nluc) on Vero E6 cells [µg/mL] | IC90, neutralisation of authentic SARS-CoV-2 (SARS-CoV-2-Nluc) on Vero E6 cells [µg/mL]
1 | B1 | 0.179 | 0.593
2 | B2 | 0.0045 | 0.014
3 | B3 | 0.0068 | 0.0236
4 | B4 | 0.749 | 3.29
5 | B5 | 14.4 | –

These binders were tested against T1, SARS-CoV-2 RBD WT (for SPR binding …) (assay: SPR).

Row | Binder | Kd [pM]
6 | B1 | 60
7 | B6 | 200
8 | B2 | 700
9 | B7 | 1700
10 | B3 | 40
11 | B8 | 50
12 | B4 | 40
13 | B9 | 40
14 | B5 | 400
15 | B10 | 1000
